From publication PMC2063705 (The Journal of Cell Biology, 2006) come the findings set out here.

The target in this test is microtubules polymerized from purified tubulin, stabilized with paclitaxel (UniProt Q6B856 1-445). The experiment in a line: co-sedimentation.

Residue numbers refer to the chain shown, from its start. Numbers in names are those of the source.

B1: wild-type p150^Glued NH2-terminal residues 1–333 (domain or fragment, human, UniProt Q14203-1 1-333, looked up)
chain: MAQSKRHVYSRTPSGSRMSAEASARPLRVGSRVEVIGKGHRGTVAYVGATLFATGKWVGVILDEAKGKNDGTVQGRKYFTCDEGHGIFVRQSQIQVFEDGADTTSPETPDSSASKVLKREGTDTTAKTSKLRGLKPKKAPTARKTTTRRPKPTRPASTGVAGASSSLGPSGSASAGELSSSEPSTPAQTPLAAPIIPTPVLTSPGAVPPLPSPSKEEEGLRAQVRDLEEKLETLRLKRAEDKAKLKELEKHKIQLEQVQEWKSKMQEQQADLQRRLKEARKEAKEALEAKERYMEEMADTADAIEMATLDKEMAEERAESLQQEVEALKERVD
modifications: [35S]methionine label (microtubule binding assay)
In the case of B1, binding was characterised by a dissociation constant (Kd) of 1.1 ± 0.2 µM.

B2: G59S p150^Glued NH2-terminal residues 1–333 (domain or fragment, human, UniProt Q14203-1 1-333, looked up)
chain: B1 chain with G59S
modifications: [35S]methionine label (microtubule binding assay)
For B2, the affinity, expressed as Kd, was 2.6 ± 0.5 µM.
